The values below come from paper PMC9133542, “Development of Novel CD47-Specific ADCs Possessing High Potency Against Non-Small Cell Lung Cancer in vitro and in vivo” (Frontiers in Oncology, 2022).

For experiment [1], the target named is CD47 on the cell membrane of human lung cancer cell lines A549, SPC-A-1 and 95D (Homo sapiens, UniProt Q08722). Put plainly: cell-based or functional assay.
For experiment [2], the target named is T1, CD47/ECD (Gln 19 - Pro 139, His Tag, ACROBiosystems) (Homo sapiens, UniProt Q08722-3).
T1 construct: also called CD47 antigen; CD47/ECD antigen; source: bought: ACROBiosystems (expressed from human 293 cells, HEK293)
T1 sequence (Q08722 19-139): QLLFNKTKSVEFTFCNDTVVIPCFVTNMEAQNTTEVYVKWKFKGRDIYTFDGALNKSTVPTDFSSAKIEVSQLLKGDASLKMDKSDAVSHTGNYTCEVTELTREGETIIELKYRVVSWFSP
Put plainly: ELISA; CD47/ECD coated (0.2 ug per well, PBS pH 7.4, 16 h at 4°C), blocked with 2% BSA in PBST; IgG titrated at 11 two-fold dilutions in PBST with 0.5% BSA, 1 h; detected with HRP/anti-human IgG conjugate; EC50 by ED50 Plus v1.0; n = 3. The note with it: both partners purified.

CD47 on the cell membrane of human lung cancer cell lines A549, SPC-A-1 and 95D, sequence (Q08722 19-323): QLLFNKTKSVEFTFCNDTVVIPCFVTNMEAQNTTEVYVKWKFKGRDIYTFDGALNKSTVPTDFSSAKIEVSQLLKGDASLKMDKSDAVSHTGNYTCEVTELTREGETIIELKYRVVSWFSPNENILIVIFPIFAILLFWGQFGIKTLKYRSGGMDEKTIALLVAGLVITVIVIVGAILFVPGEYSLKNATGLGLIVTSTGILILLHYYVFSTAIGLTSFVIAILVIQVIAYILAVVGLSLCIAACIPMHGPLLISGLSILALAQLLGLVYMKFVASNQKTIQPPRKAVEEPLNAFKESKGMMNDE

B1: 7DC4-VCMMAE (7DC4 conjugated with maleimidocaproyl-valine-citrulline-monomethyl auristatin E) (antibody, V domains shown)
VH: QVQLKQSGAELVQPGASVKLSCKASGYTFTNYYMYWLRQRPGQGLEWIGEINPSNGGTDFNEKFKSKATLTVDKSSSTAFMQLSSLTSDDSAVYYCARGGFTMDYWGQGTTVTVSS
VL: DVVMTQTPLSLPVSLGDQASISCRSSQSLVHSNGNTYLHWYLQKPGQSPKLLIYKVSNRFSGVPDRFSGSGSGTDFTLKISRVEAEDLGVYFCSQSTHVPLTFGAGTKLELK
notes: as the heavy chain of m2 (mouse Fab part); human IgG1 Fc fragment; as the light chain of m2; Antibody-drug conjugate of m2; drug distribution 2, 4, 6 and 8 per antibody; also called 7DC4-CVMMAE; 7DC4-MMAE; source: 7DC4 from Expi293, reduced with TCEP, conjugated with VCMMAE, purified (Amicon-30 kDa); copies: 2 + 2
For B1, the “IC50 of cytotoxicity on 95D cells (relative cell viability, WST-1; 0.064-40 nM)” value in experiment [1] is roughly 40 nM. In addition, the concentration giving a half-maximal response (EC50) (in general, the concentration needed to bring the measured effect to its halfway point) in experiment [2] amounted to 0.13 nM.

B2: 7DC4 monoclonal antibody (chimeric anti-human CD47, mouse Fab plus human IgG1 Fc) (antibody, V domains shown)
VH: QVQLKQSGAELVQPGASVKLSCKASGYTFTNYYMYWLRQRPGQGLEWIGEINPSNGGTDFNEKFKSKATLTVDKSSSTAFMQLSSLTSDDSAVYYCARGGFTMDYWGQGTTVTVSS
VL: DVVMTQTPLSLPVSLGDQASISCRSSQSLVHSNGNTYLHWYLQKPGQSPKLLIYKVSNRFSGVPDRFSGSGSGTDFTLKISRVEAEDLGVYFCSQSTHVPLTFGAGTKLELK
notes: human IgG1 Fc fragment; mouse light chain of 7DC4; Chimeric IgG1; also called 7DC4 mAb; 7CD4; source: Expi293, transfected with light and heavy chain plasmids, purified; copies: 2 + 2
As for B2, the concentration giving a half-maximal response (EC50) in experiment [2] amounted to 0.13 nM.

B3: 7DC2-VCMMAE (7DC2 conjugated with maleimidocaproyl-valine-citrulline-monomethyl auristatin E) (antibody, V domains shown)
VH: QVQLQQSGPELVKPGASVKMSCKASGYTFTNYFMHWVKQKPGQGLEWIGYINPYNDGTKYNEKFKGKATLTSDKSSSTAYMELSSLTSEDSAVYYCTKGGRYSMDYWGQGTTLTVSS
VL: DVVMTQTPLSLPVRLGDEVSISCRSSQTIVFTNGNTYLEWYLQKPGQSPKLLIYKVSNRFSGVPDRFSGSGSGTDFTLTISRVEAEDLGIYYCFQGSHVPYTFGGGTKLELK
notes: as the heavy chain of m1 (mouse Fab part); human IgG1 Fc fragment; as the light chain of m1; Antibody-drug conjugate of m1; drug distribution 2, 4, 6 and 8 per antibody; also called 7DC-VCMMAE; source: 7DC2 from Expi293, reduced with TCEP, conjugated with VCMMAE, purified (Amicon-30 kDa); copies: 2 + 2
As for B3, the “IC50 of cytotoxicity on 95D cells (relative cell viability, WST-1; 0.064-40 nM)” value in experiment [1] was roughly 40 nM. The EC50 in experiment [2] is 0.15 nM.

B4: 7DC2 monoclonal antibody (chimeric anti-human CD47, mouse Fab plus human IgG1 Fc) (antibody, V domains shown)
VH: QVQLQQSGPELVKPGASVKMSCKASGYTFTNYFMHWVKQKPGQGLEWIGYINPYNDGTKYNEKFKGKATLTSDKSSSTAYMELSSLTSEDSAVYYCTKGGRYSMDYWGQGTTLTVSS
VL: DVVMTQTPLSLPVRLGDEVSISCRSSQTIVFTNGNTYLEWYLQKPGQSPKLLIYKVSNRFSGVPDRFSGSGSGTDFTLTISRVEAEDLGIYYCFQGSHVPYTFGGGTKLELK
notes: human IgG1 Fc fragment; mouse light chain of 7DC2; Chimeric IgG1; also called 7DC2 mAb; 7CD2; source: Expi293, transfected with light and heavy chain plasmids, purified; copies: 2 + 2
For the molecule B4, in experiment [2], the EC50 stood at 0.15 nM.
